The values below are quoted from earlier work in PMC7488417.

This series concerns the target cJun LZ (Homo sapiens) (UniProt P05412). Put plainly: ITC. A general note: In ITC the heat of successive injections is recorded.

cFos LZ, sequence (P01100 162-193): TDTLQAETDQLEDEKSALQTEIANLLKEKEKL
cJun LZ (Homo sapiens), sequence (P05412 277-308): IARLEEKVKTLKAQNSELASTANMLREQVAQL

As to cFos LZ (from UniProt P01100), the Kd is 26.6 µM.

As usually defined, the Kd is the free concentration of one partner at which half of the binding sites on the other are occupied at equilibrium, for simple one-to-one binding.
